Results taken from the supplement of paper PMC12764529.
± gives the half width of the 95% confidence interval.

Assays:
[1] = folding stability dG unfold from trypsin proteolysis; higher = more stable
In short: (§1)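 Bayesian fitting of sequencing counts gave K50 for each design. Unfolding free energy followed by setting this against a sequence-predicted unfolded-state K50 and a shared folded-state K50, either per protease or with trypsin and chymotrypsin combined. The designs, under 80 residues and lacking cysteine, were digested in a PA-tagged cDNA display format at 11 threefold-diluted protease concentrations and without protease, and only those with AlphaFold2 dimer inter-PAE above 15 were kept.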

[2] = folding stability dG unfold from chymotrypsin proteolysis; higher = more stable
In short: as §1

[3] = folding stability dG unfold (combined trypsin and chymotrypsin); higher = more stable
In short: as §1

Sequence | folding stability dG unfold [1] [kcal/mol] | folding stability dG unfold [2] [kcal/mol] | folding stability dG unfold [3] [kcal/mol]
SMYTTVTVEVDITLADKTPDGTWTPVGTFPIKVTVTVPESRPEEAREEALARARAEVEAFAASRGLTVVVSA [r9_356_JUSTAS] | 1.76 ± 0.043 | 2.21 ± 0.043 | 2.07 ± 0.079
SMYYLVTITVTIRKDGKPVSVTPIYLAVPPEKAEEVAAEIKKSHPDLEVTITMEVTEVSEDDEEVKELLKSA [r9_782_JUSTAS] | 1.92 ± 0.13 | 3.36 ± 0.085 | 2.79 ± 0.19
SNEPPVIEIKFRIDEVQPMNGQPMIMFEITEIEDAPPEIQDLLKNGYYIMIHMPPGEPLKEGEEFEIHIFSA [r9_557_TrROS] | 1.34 ± 0.09 | 2.75 ± 0.12 | 2.01 ± 0.3
SNKIDKRIVSVTFYESLPNGSVKVNNLVFISTSDGKVRLVNAGEITIPLGDKTLSINIGEASSNVKLGKISA [r9_1113_TrMRF] | 1.01 ± 0.034 | 1.52 ± 0.032 | 1.37 ± 0.041
SNKKWRTIELDFWFRTPEQAREWANNLARRLPPDNIDSISVEVEPFPVRKNGEPVGPVYRFKLTIMVRPESA [r9_605_TrROS] | 2.33 ± 0.062 | 2.82 ± 0.032 | 2.6 ± 0.091
SNLMIHFENPDNGVRVMIQINPEHGRIKLSVMYPNGKPVAEQTIEVDPNKIRLRFKVGGRKFEIEIEIPESA [r9_385_TrROS] | 4.32 ± 0.19 | 5.6 ± 0.29 | 5.62 ± 0.54
SNNKRITIEIPFPMPAEQARNFMEAFGIKKIEYEKHDDPGYYRVKYTVPDDNVTIDIHIFPPPVPPGQKPSA [r9_1090_TrROS] | 1.23 ± 0.024 | 1.83 ± 0.15 | 1.67 ± 0.13
SNPNEPLTAEEIAKHIEEFMQEEHGIDKIKPEEFTVNPPDGYIKVEMEIEHKNPPGQKHKIDIWIPPDDLSA [r9_1002_TrROS] | 0.0662 ± 0.22 | 0.0346 ± 0.14 | < -1
SNWITLKHTIKHPGREIKIEITAQPNPGGPYWIQVNIEVRDPNGEKEEVEITVPFRGMSIEDFLKNAADASA [r9_217_TrROS] | 2.85 ± 0.12 | 4.46 ± 0.062 | 3.78 ± 0.29
SPAGELVSSTFPVTVTVTVWRRLPDGTWTPVGTETFTVTVTVAGIPEEVAEALRKAAETPPPPPNLAGLLSA [r9_1192_TrMRF] | 1.98 ± 0.028 | 1.82 ± 0.049 | 1.93 ± 0.054
SPEIKIEVFKNEDGEEIFIKIEVPPGWRIRIIYNGKEIEEIEVDGYRIRFEEVDGKLRIEVEPLPPGEKPSA [r9_221_TrROS_Hall] | 3.87 ± 0.081 | 5.48 ± 0.15 | 5.2 ± 0.27
SPIVKVRLRIELPDGKVLELELDVPLPLIKEALSKLIGEKYKVKIVKIDPIDPEKLKPGSTIEITLKAEPSA [r9_803_TrMRF] | 3.72 ± 0.28 | 4.76 ± 0.14 | 4.59 ± 0.2
SPKGIYIFMIQVKWKNPNGNEWTFPIMVPMDEMPEEELRDFIREFFPGFDDVDIEPQVMRIPPSPEAREKSA [r9_841_TrROS] | 2.3 ± 0.16 | 2.75 ± 0.17 | 2.57 ± 0.28
SPLELPSDEEITVNAEVLILPYNPETGEIEDEIPIPLPVKIKVKKDGSVEIEIDIPDSIPENVPIVLLLKSA [r9_90_TrMRF] | 1.29 ± 0.062 | 1.81 ± 0.14 | 1.52 ± 0.19
SPLKEGDTLTFTLPVPDLPNVRIEIDLHFYKDPNTDRYRVLANITVYYGDKPVTFSIEMPVDTFLDLLKSSA [r9_71_TrMRF] | 2.99 ± 0.24 | 2.34 ± 0.12 | 2.87 ± 0.18
SPLKPNDIRPIKFTSPIRNPDNGRPFRIKVEIWVMPEDPMVIIKDEIEPPNGRTREHTFWIPPGQKIEIPSA [r9_88_TrROS] | 0.261 ± 0.13 | 0.358 ± 0.33 | 0.295 ± 0.3
SPNFRISPEIKNAIKRALKENEPGKKVEIRMRYPDGPTIMISIDKPGSINIEVEPDPGKPIMEFEFDIKDSA [r9_132_TrROS] | 0.732 ± 0.079 | 0.825 ± 0.069 | 0.873 ± 0.16
SPPFKIKEIKIEIFPNGTVKIEYRFPSSGHYVKFSIPVDPKKGRIPINMEIYNPDNGKVWEFSATIRIKKSA [r9_825_TrROS] | 3.34 ± 0.17 | 4.86 ± 0.077 | 4.69 ± 0.2
SPPVSTTTPVPDPENGVVVATVTLTTDPTTGEKTLILKSPEGKTKTVTLSPDETFPVEGLPKGLTATSSVSA [r9_1150_JUSTAS] | -0.942 ± 0.47 | 0.437 ± 0.082 | 0.0862 ± 0.14
SPRTTVSFEVYMPPDQLKQNSIEDIADRVRDHFPGYKIKGIDIKFEPYPDPENGRPWVRVTVMIRVEPPESA [r9_1189_TrROS] | 2.34 ± 0.085 | 3.28 ± 0.098 | 2.96 ± 0.14
SPSRPTLVTTYTFDPSGVPTATTKEITPEEVEELEKKGWKKLSEDPEKGLITLEKKLPTSPQKIEVTILPSA [r9_5_JUSTAS] | -0.402 ± 0.2 | 0.0733 ± 0.27 | 0.0748 ± 0.29

Sequence | folding stability dG unfold [1] [kcal/mol] | folding stability dG unfold [2] [kcal/mol] | folding stability dG unfold [3] [kcal/mol]
SPSTTVETTVTIPYTYRLPDGTVLEYNLTISVTASLTNGGISTGDLKSAIDTALAAANIPPGPPDLPLLLRS [r1_175_JUSTAS] | 0.738 ± 0.13 | 2.31 ± 0.098 | 1.83 ± 0.096
SPTIKASYDPETGVLTVYVKLRDPETGEPIPAEAVAAKIKELFPDAEILDIEPNPDGYVKITVKVAPDAVSA [r9_87_TrMRF] | 3.48 ± 0.11 | 3.79 ± 0.086 | 3.72 ± 0.071
SPTQTITLTLPDRPVTVPLTAYPETGYVEITVTVTYPTGTKTYTFTVKAKSFEEVLAELSKLPEDFDINPSA [r9_713_TrMRF] | 1.83 ± 0.073 | 1.81 ± 0.088 | 1.85 ± 0.052
SPTVTETTLIASEEDPSSGVKTELTETTTIVKVGGTTTEVTTTTTTLTPEEDGKGTSTVTPSTTTTPIPASA [r9_375_JUSTAS] | 0.84 ± 0.079 | 1.45 ± 0.12 | 1.29 ± 0.12
SPVKIRIIVPKGMDPEMANFIVKEIMKHLGLPPGAPVEILPWEDLQKNPDVHQALEEAEKEGADIVILIRSA [r9_1147_TrROS] | 3.08 ± 0.14 | 4.16 ± 0.16 | 3.84 ± 0.1
SPVKWGEEKTYTYPFPDNPNYRIKIKVHVYKDPENGRPYVRMNIEVYNNGKPRKYNINMPVDQLKDLLQFSA [r9_71_TrROS] | 2.22 ± 0.039 | 2.66 ± 0.076 | 2.57 ± 0.21
SQNGGPKRKVTITIIIVIPPGQRNPDGKPRPSVEELARYLQKELQEQFPGNKDVKIDITIIPLGDPEQIKSA [r9_329_TrROS] | 2.06 ± 0.069 | 2.86 ± 0.15 | 2.33 ± 0.21
SQVKIHIPFEVEYSPENGNYFFMIRVRYPGKERPIMFPYKDPEQMREWARTIAKELAKENPDNVEIEIWWSA [r9_1148_TrROS] | 2.42 ± 0.038 | 2.83 ± 0.095 | 2.73 ± 0.15
SRIKISIFRPGKIIPEIPIKVDSVEEAVEKVLEYIRKFPPNAPYYIMIEVEHTDPANGQKQEGTVHIPIKSA [r9_245_TrROS] | 2.22 ± 0.059 | 4 ± 0.048 | 3.39 ± 0.12
SSAEELARRLAAELAERLPPGARITDVRIERRADGTVTITVTVELPDGRTLTVTITLDLATGEITIEIHPSA [r9_219_TrROS_Hall] | 4.95 ± 0.16 | 4.35 ± 0.26 | 4.89 ± 0.19
SSEILEKLAKELPDLEPVGVEEEPLPDGGRRLTLVARRPETGTYVRVTVDVPPGGGVASVEVEEVPVSRLSA [r9_274_JUSTAS] | 0.529 ± 0.054 | 2.23 ± 0.033 | 1.77 ± 0.054
SSKIEASATIEGDVITVTLVADSLSDLLAAIKELAEKLGVSFEILSISYKRLPNGKIIATVTARVKPEDLSA [r9_102_TrMRF] | 3.24 ± 0.056 | 4.65 ± 0.048 | 4.277 ± 0.039
SSLSIPGATKEEFEEIAEELEKKNPGVKVTVTYDPENGVITITITKPVKDKKGNLIGTETEVITITVTKPSA [r9_378_JUSTAS] | 3.05 ± 0.41 | 2.26 ± 0.072 | 2.41 ± 0.14
SSMSSSPLGSDPATGTTYYLSVSNNSTTLSTVTPAPVLPISPEELEKIAKELAKKNPKLAKKAKELAEKLKS [r1_330_JUSTAS] | -0.301 ± 0.2 | 0.123 ± 0.25 | -0.0137 ± 0.3
SSMTLVTVEMEITLRTPEGGSETLKRTFEREVSPDDPAAVEAAVEAAKEEIREAHPDVVEVRVVKVDTALSA [r9_436_JUSTAS] | 4.06 ± 0.089 | 4.459 ± 0.039 | 4.41 ± 0.046
SSMTTTEKKYTYNDSSISVSTTTLPDGSKLITTPITRKNPDGIDVTETLTTLDKGSGVTPVSPSTSTLNTSA [r9_554_JUSTAS] | -1.24 ± 0.18 | 0.602 ± 0.035 | 0.177 ± 0.069
SSPIMIKMKDPDDREKIEKAVEEINDETGMSIRPESVDPNGKYTFMINMPPEHQKKILKALREAGNIEIVSA [r9_472_TrROS] | 0.289 ± 0.21 | 1.1 ± 0.15 | 0.874 ± 0.16
SSPKILTESELKITIPMTDPETGKPINLEVTIPLLVDPATGTVEVLEIKITGPEEVQEILKKLIEKLIKESA [r9_619_JUSTAS] | 2.14 ± 0.23 | 2.15 ± 0.12 | 2.11 ± 0.22
SSSGPKTELITLKYEEPVRSPEEAEARARALAEEIAERTGAPIEVDVEIEYDPETGKAYVTVPVRVLLPDSA [r9_741_JUSTAS] | 1.14 ± 0.037 | 0.124 ± 0.16 | 0.727 ± 0.1
SSSTVTVTVTFPDGTVVTVDFTGSLAEVEAAVREWVRQYAAEQGLDPREVRVTITFADDGTTRERTLPLRSA [r9_1193_JUSTAS] | 0.921 ± 0.043 | 2.42 ± 0.035 | 2.04 ± 0.086
SSSVVESSYDPSTGTLTVTVSYDFPPAPPAAATSSTTPVGSNSYTGSGSYTSPAGASSLSSTATGPPTLSSA [r9_780_JUSTAS] | 1.43 ± 0.031 | 1.15 ± 0.054 | 1.37 ± 0.048
